According to US6380373B1, “Steroid receptor coactivator compositions and methods of use” (Baylor College of Medicine, priority 1995, dated 2002):

Assays:
[1] = target: T1, hPR (Homo sapiens, UniProt P06401); experiment: Squelching of hPR transactivation by hER and its reversal by SRC-1, CAT assay in HeLa cells; format: cell-based
T1 construct: expressed in transfected cells; host or cells: HeLa
T1 sequence (P06401 1-933): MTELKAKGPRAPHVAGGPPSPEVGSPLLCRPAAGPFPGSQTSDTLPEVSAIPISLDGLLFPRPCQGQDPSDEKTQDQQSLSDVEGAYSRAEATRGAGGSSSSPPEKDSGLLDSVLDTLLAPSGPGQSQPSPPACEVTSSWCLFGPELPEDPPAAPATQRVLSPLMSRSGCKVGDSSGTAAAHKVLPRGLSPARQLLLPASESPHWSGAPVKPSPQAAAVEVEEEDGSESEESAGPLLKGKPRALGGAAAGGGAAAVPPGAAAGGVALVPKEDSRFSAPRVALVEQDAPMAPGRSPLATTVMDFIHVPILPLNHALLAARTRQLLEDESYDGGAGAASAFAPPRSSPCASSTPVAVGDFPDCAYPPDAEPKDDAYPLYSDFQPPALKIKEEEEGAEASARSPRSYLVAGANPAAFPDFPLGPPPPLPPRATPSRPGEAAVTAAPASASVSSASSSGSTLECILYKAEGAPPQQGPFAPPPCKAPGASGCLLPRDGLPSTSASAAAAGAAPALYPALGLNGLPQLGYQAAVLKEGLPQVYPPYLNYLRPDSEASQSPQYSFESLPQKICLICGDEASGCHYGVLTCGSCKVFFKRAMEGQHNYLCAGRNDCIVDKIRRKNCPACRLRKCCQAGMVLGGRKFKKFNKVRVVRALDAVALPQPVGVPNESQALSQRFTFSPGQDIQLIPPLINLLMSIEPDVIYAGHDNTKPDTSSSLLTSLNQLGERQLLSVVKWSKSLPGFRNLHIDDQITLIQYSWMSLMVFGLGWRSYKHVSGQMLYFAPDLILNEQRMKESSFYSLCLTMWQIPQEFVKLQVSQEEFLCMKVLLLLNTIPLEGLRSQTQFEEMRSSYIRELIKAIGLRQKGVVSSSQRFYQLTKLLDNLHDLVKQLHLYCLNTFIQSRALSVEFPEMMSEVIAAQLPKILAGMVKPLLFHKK
Protocol: (§1) Lipofectin (GibcoBRL) was selected for transfection of Hela cells.
HeLa cells were transfected with 1 μg of both hPR and hER expression vectors, together with 5 μg of PRE2-TATA-CAT and increasing amounts of SRC-1. Cells were then exposed to ligands R5020 and/or E2 (2×10^−8 M) and CAT activities determined 42 h later using 40 μg of proteins extract. The percentage of chloramphenicol conversion to the mono and diacetylated form was determined and represents the average of three independent experiments (Xn=3±SEM).

[2] = target: T2, ER (Homo sapiens, UniProt P03372); experiment: CAT reporter assay ER/ERE2-TATA-CAT in HeLa cells; format: cell-based; conditions: 3 μg SRC-1, estradiol 2×10^−8 M
T2 construct: expressed in transfected cells; host or cells: HeLa
T2 sequence (P03372 1-595): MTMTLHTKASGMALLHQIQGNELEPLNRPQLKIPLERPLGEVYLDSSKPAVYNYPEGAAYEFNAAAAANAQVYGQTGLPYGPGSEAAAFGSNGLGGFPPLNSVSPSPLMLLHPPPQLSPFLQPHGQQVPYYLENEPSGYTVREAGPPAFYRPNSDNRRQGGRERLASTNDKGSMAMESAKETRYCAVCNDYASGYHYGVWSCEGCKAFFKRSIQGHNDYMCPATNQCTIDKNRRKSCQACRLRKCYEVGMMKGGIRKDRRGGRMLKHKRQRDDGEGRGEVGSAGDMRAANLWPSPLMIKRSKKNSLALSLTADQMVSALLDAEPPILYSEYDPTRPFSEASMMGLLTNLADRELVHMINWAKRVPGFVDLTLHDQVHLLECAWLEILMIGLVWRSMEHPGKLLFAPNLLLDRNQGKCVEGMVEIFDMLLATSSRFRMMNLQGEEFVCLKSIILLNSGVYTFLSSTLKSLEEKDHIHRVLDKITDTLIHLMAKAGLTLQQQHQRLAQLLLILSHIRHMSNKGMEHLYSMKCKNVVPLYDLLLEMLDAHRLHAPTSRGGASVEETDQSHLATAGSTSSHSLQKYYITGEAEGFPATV
Protocol: Biol. 13, 6501-6508), Sp1 and Sp1-tk-CAT (Courey, A. J. and Tjian, R. (1988), Cell 55, 887-898), CREB and CRE-tk-CAT (Chrivia, J. C. et al., (1993), Nature 365, 855) and GAL4VP16 and 17mer-tk-CAT (Baniahmad, A. et al., (1992), EMBO J. 11, 1015-1023) have been previously described and the above references are incorporated herein by reference in their entirety, including any drawings.
as §1
HeLa cells were cotransfected with 0.5 μg of cDNAs encoding various steroid receptors indicated and 5 μg of their cognates HREs containing reporters, including PR/PRE2-TATA-CAT, ER/ERE2-TATA-CAT, GR/PRE2-TATA-CAT, TR-/DR4-tk-CAT and RXR/DR1-tk-CAT, along with 3 μg of SRC-1 or empty expression vector. Cells were then treated with their corresponding ligands (PR:R5020, ER:estradiol, GR:dexamethasone, TR:Triac, RXR:9-cis retinoic acid) at a concentration of 2×10^−8M. The CAT activity of the reporter was determined using 14 μg of protein extract.

[3] = target: human progesterone receptor B isoform (hPRB) (human) (UniProt P06401); experiment: cell-based or functional assay

B1: steroid receptor coactivator-one (SRC-1), full-length (protein)
chain: MSIPRVNPSVNPSISPAHGVARSSTLPPSNSNMVSTRINRQQSSDLHSSSHSNSSNSQGSFGCSPGSQIVANVALNKGQASSQSSKPSLNLNNPPMEGTGISLAQFMSPRRQVTSGLATRPRMPNNSFPPNISTLSSPVGMTSSACNNNNRSYSNIPVTSLQGMNEGPNNSVGFSASSPVLRQMSSQNSPSRLNIQPAKAESKDNKEIASTLNEMIQSDNSSSDGKPLDSGLLHNNDRLSDGDSKYSQTSHKLVQLLTTTAEQQLRHADIDTSCKDVLSCTGTSNSASANSSGGSCPSSHSSLTARHKILHRLLQEGSPSDITTLSVEPDKKDSASTSVSVTGQVQGNSSIKLELDASKKKESKDHQLLRYLLDKDEKDLRSTPNLSLDDVKVKVEKKEQMDPCNTNPTPMTKATPEEIKLEAQSQFTADLDQFDQLLPTLEKAAQLPGLCETDRMDGAVTSVTIKSEILPASLQSATARPTSRLNRLPELELEAIDNQFGQPGTGDQIPWTNNTVTAINQSKSEDQCISSQLDELLCPPTTVEGRNDEKALLEQLVSFLSGKDETELAELDRALGIDKLVQGGGLDVLSERFPPQQATPPLIMEERPNLYSQPYSSPFPTANLPSPFQGMVRQKPSLGTMPVQVTPPRGAFSPGMGMQPRQTLNRPPAAPNQLRLQLQQRLQGQQQLIHQNRQAILNQFAATAPVGINMRSGMQQQITPQPPLNAQMLAQRQRELYSQQHRQRQLIQQQRAMLMRQQSFGNNLPPSSGLPVQTGNPRLPQGAPQQFPYPPNYGTNPGTPPASTSPFSQLAANPEASLANRNSMVSRGMTGNIGGQFGTGINPQMQQNVFQYPGAGMVPQGEANFAPSLSPGSSMVPMPIPPPQSSLLQQTPPASGYQSPDMKAWQQGAIGNNNVFSQAVQNQPTPAQPGVYNNMSITVSMAGGNTNVQNMNPMMAQMQMSSLQMPGMNTVCPEQINDPALRHTGLYCNQLSSTDLLKTEADGTQQVQQVQVFADVQCTVNLVGGDPYLNQPGPLGTQKPTSGPQTPQAQQKSLLQQLLTE
Question: What does the source list for B1?
Answer: reversal of hER squelching of hPR transactivation ([1]; HeLa cells, increasing amounts of SRC-1, dose-dependent, in the presence of estrogen): ~16 fold; stimulation of PR transactivation ([1]; highest concentration of SRC-1 (2 μg), without estrogen squelching): ~5 fold; effect on ER transcriptional activity [2]: enhance; fold induction of PRE2-TATA-CAT reporter activity over the hormone-induced receptor activity (HeLa cells, R5020) [3]: 14 fold; reversal of hER squelching of hPR-mediated CAT reporter activity (HeLa cells) [3]: 16 fold; stimulation of PR transactivation at the highest concentration of SRC-1 (2 µg), CAT reporter [3]: 5 fold
